The supplement of paper PMC9112550, “Optimization of the antimicrobial peptide Bac7 by deep mutational scanning” (BMC Biology, 2022)

System: Escherichia coli TOP10
Test: shrunken log2 fold change of peptide-encoding DNA abundance (4.5 h post-induction vs induction); higher = less antimicrobial activity (less host growth inhibition)
Conditions: time post-induction: 4.5 h; library: site-saturation at positions 5, 18, 19, 20
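Also: peptides expressed intracellularly from a pBAD plasmid library in pooled LB shake-flask culture, induced with 0.3% L-arabinose, DNA abundance read by NGS, three biological replicates, DESeq2 with apeglm shrinkage.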

| Sequence | shrunken log2 fold change |
| --- | --- |
| RRIRERPPRLPRPRPRPCKWPRP | 0.0276 |
| RRIRWRPPRLPRPRPRPRWQPRP | -0.0189 |
| RRIRERPPRLPRPRPRPVGIPRP | 0.144 |
| RRIRIRPPRLPRPRPRPKSAPRP | -0.0724 |
| RRIRARPPRLPRPRPRPPINPRP | -0.192 |
| RRIRHRPPRLPRPRPRPSEHPRP | 0.00525 |
| RRIRGRPPRLPRPRPRPMHYPRP | -0.165 |
| RRIRCRPPRLPRPRPRPSFLPRP | -0.718 |
| RRIRHRPPRLPRPRPRPWYKPRP | -1.2 |
| RRIRVRPPRLPRPRPRPTFEPRP | -0.106 |
| RRIRQRPPRLPRPRPRPRLQPRP | 0.501 |
| RRIRWRPPRLPRPRPRPLDCPRP | -0.117 |
| RRIRRRPPRLPRPRPRPDPGPRP | -0.0599 |
| RRIRIRPPRLPRPRPRPWPKPRP | -0.122 |
| RRIRKRPPRLPRPRPRPVGLPRP | 0.174 |
| RRIRIRPPRLPRPRPRPFTGPRP | -1.27 |
| RRIRLRPPRLPRPRPRPFMCPRP | -0.0925 |
| RRIRERPPRLPRPRPRPSNGPRP | -0.0949 |
| RRIRTRPPRLPRPRPRPCPVPRP | -0.175 |
| RRIRPRPPRLPRPRPRPGQQPRP | 0.167 |
| RRIRRRPPRLPRPRPRPMEPPRP | 0.0257 |
| RRIRTRPPRLPRPRPRPAMFPRP | -0.686 |
| RRIRERPPRLPRPRPRPTQAPRP | -0.0212 |
| RRIRPRPPRLPRPRPRPFCCPRP | 0.0801 |
| RRIRMRPPRLPRPRPRPQIEPRP | 0.277 |

| Sequence | shrunken log2 fold change |
| --- | --- |
| RRIRTRPPRLPRPRPRPLMVPRP | -0.32 |
| RRIRCRPPRLPRPRPRPPSMPRP | 0.0264 |
| RRIRSRPPRLPRPRPRPNPYPRP | -0.558 |
| RRIRNRPPRLPRPRPRPEYQPRP | 0.00318 |
| RRIRERPPRLPRPRPRPDFSPRP | 0.0617 |
| RRIRYRPPRLPRPRPRPPLPPRP | 0.184 |
| RRIRDRPPRLPRPRPRPHQAPRP | -0.0175 |
| RRIRQRPPRLPRPRPRPPDMPRP | -0.14 |
| RRIRLRPPRLPRPRPRPCPPPRP | 0.157 |
| RRIRERPPRLPRPRPRPVQEPRP | 0.0869 |
| RRIRCRPPRLPRPRPRPAGIPRP | -0.0496 |
| RRIRSRPPRLPRPRPRPTDYPRP | -0.66 |
| RRIRDRPPRLPRPRPRPGLPPRP | 0.245 |
| RRIRDRPPRLPRPRPRPFCDPRP | 0.167 |
| RRIRLRPPRLPRPRPRPVPAPRP | 0.222 |
| RRIRYRPPRLPRPRPRPVMPPRP | 0.047 |
| RRIRCRPPRLPRPRPRPKHAPRP | 0.302 |
| RRIRSRPPRLPRPRPRPVPKPRP | 0.232 |
| RRIRERPPRLPRPRPRPMILPRP | -0.388 |
| RRIRRRPPRLPRPRPRPREDPRP | 0.811 |
| RRIRQRPPRLPRPRPRPIDHPRP | -0.0445 |
| RRIRERPPRLPRPRPRPKANPRP | 0.0174 |
| RRIRHRPPRLPRPRPRPDFYPRP | -0.609 |
| RRIRWRPPRLPRPRPRPPYEPRP | -0.103 |
| RRIRHRPPRLPRPRPRPCAHPRP | 0.0671 |

| Sequence | shrunken log2 fold change |
| --- | --- |
| RRIRTRPPRLPRPRPRPCVIPRP | -0.029 |
| RRIRPRPPRLPRPRPRPFNKPRP | -0.468 |
| RRIRARPPRLPRPRPRPKHYPRP | -0.277 |
| RRIRERPPRLPRPRPRPNTKPRP | 0.0156 |
| RRIRTRPPRLPRPRPRPDSLPRP | -0.153 |
| RRIRVRPPRLPRPRPRPDKYPRP | -0.277 |
| RRIRYRPPRLPRPRPRPDSQPRP | -0.429 |
| RRIRLRPPRLPRPRPRPMAVPRP | -0.0225 |
| RRIRSRPPRLPRPRPRPGCHPRP | 0.328 |
| RRIRSRPPRLPRPRPRPFCCPRP | -0.14 |
| RRIRHRPPRLPRPRPRPLCKPRP | 0.0111 |
| RRIRIRPPRLPRPRPRPQNWPRP | -0.517 |
| RRIRPRPPRLPRPRPRPGKRPRP | 0.389 |
| RRIRQRPPRLPRPRPRPMKSPRP | 0.0232 |
| RRIRKRPPRLPRPRPRPAKTPRP | 0.0104 |
| RRIRERPPRLPRPRPRPPHPPRP | -0.0298 |
| RRIRYRPPRLPRPRPRPAIQPRP | -0.316 |
| RRIRIRPPRLPRPRPRPIRTPRP | -0.288 |
| RRIRHRPPRLPRPRPRPDVTPRP | -0.0437 |
| RRIRERPPRLPRPRPRPPDRPRP | -0.00621 |
| RRIRPRPPRLPRPRPRPLLRPRP | 1.73 |
| RRIRNRPPRLPRPRPRPFPQPRP | -0.186 |
| RRIRTRPPRLPRPRPRPQCMPRP | -0.133 |
| RRIRCRPPRLPRPRPRPNTQPRP | -0.0903 |
| RRIRLRPPRLPRPRPRPSQFPRP | -0.12 |

| Sequence | shrunken log2 fold change |
| --- | --- |
| RRIRNRPPRLPRPRPRPPREPRP | 0.534 |
| RRIRERPPRLPRPRPRPNYMPRP | -0.667 |
| RRIRRRPPRLPRPRPRPFCPPRP | -0.106 |
| RRIRHRPPRLPRPRPRPKFIPRP | -0.192 |
| RRIRVRPPRLPRPRPRPQTYPRP | -0.647 |
| RRIRDRPPRLPRPRPRPVNCPRP | -0.328 |
| RRIRGRPPRLPRPRPRPRALPRP | 0.852 |
| RRIRFRPPRLPRPRPRPMMMPRP | -0.101 |
| RRIRARPPRLPRPRPRPNYTPRP | -0.329 |
| RRIRWRPPRLPRPRPRPHWIPRP | -0.434 |
| RRIRERPPRLPRPRPRPKQHPRP | 0.241 |
| RRIRVRPPRLPRPRPRPMDPPRP | -0.56 |
| RRIRFRPPRLPRPRPRPREDPRP | 0.0505 |
| RRIRARPPRLPRPRPRPIWLPRP | 0.221 |
| RRIRHRPPRLPRPRPRPMKQPRP | -0.0525 |
| RRIRYRPPRLPRPRPRPHKNPRP | -1.06 |
| RRIRPRPPRLPRPRPRPHHRPRP | -0.118 |
| RRIRARPPRLPRPRPRPVFIPRP | -0.201 |
| RRIRQRPPRLPRPRPRPWRAPRP | 0.0749 |
| RRIRPRPPRLPRPRPRPYGKPRP | -0.307 |
| RRIRVRPPRLPRPRPRPPSWPRP | 0.34 |
| RRIRTRPPRLPRPRPRPIRFPRP | -0.0183 |
| RRIRDRPPRLPRPRPRPNRAPRP | 0.563 |
| RRIRVRPPRLPRPRPRPVSCPRP | 0.182 |
| RRIRDRPPRLPRPRPRPAFIPRP | -0.115 |

| Sequence | shrunken log2 fold change |
| --- | --- |
| RRIRLRPPRLPRPRPRPPSSPRP | 1.86 |
| RRIRYRPPRLPRPRPRPAKNPRP | -0.508 |
| RRIRQRPPRLPRPRPRPTHKPRP | 0.0649 |
| RRIRCRPPRLPRPRPRPVLTPRP | -0.191 |
| RRIRPRPPRLPRPRPRPGWCPRP | 0.072 |
| RRIRTRPPRLPRPRPRPFQPPRP | 0.0737 |
| RRIRPRPPRLPRPRPRPFTCPRP | -0.206 |
| RRIRLRPPRLPRPRPRPWKIPRP | 0.095 |
| RRIRCRPPRLPRPRPRPWMQPRP | -0.0437 |
| RRIRRRPPRLPRPRPRPRWWPRP | 0.318 |
| RRIRWRPPRLPRPRPRPQSLPRP | 0.00606 |
| RRIRERPPRLPRPRPRPIRKPRP | -0.108 |
| RRIRMRPPRLPRPRPRPWSHPRP | -0.0815 |
| RRIRWRPPRLPRPRPRPVSHPRP | -0.0115 |
| RRIRKRPPRLPRPRPRPANNPRP | 0.0823 |
| RRIRGRPPRLPRPRPRPGRRPRP | 0.849 |
| RRIRVRPPRLPRPRPRPVTSPRP | -0.558 |
| RRIRDRPPRLPRPRPRPTWRPRP | 0.756 |
| RRIRTRPPRLPRPRPRPQFCPRP | -0.486 |
| RRIRGRPPRLPRPRPRPKLPPRP | 0.821 |
| RRIRHRPPRLPRPRPRPARSPRP | 0.0188 |
| RRIRMRPPRLPRPRPRPLCEPRP | 0.653 |
| RRIRARPPRLPRPRPRPLPAPRP | 1.02 |
| RRIRGRPPRLPRPRPRPASFPRP | 0.345 |
| RRIRLRPPRLPRPRPRPTMSPRP | -0.226 |

| Sequence | shrunken log2 fold change |
| --- | --- |
| RRIRNRPPRLPRPRPRPYMTPRP | -0.509 |
| RRIRIRPPRLPRPRPRPMEKPRP | -0.229 |
| RRIRTRPPRLPRPRPRPVIKPRP | -0.237 |
| RRIRARPPRLPRPRPRPLRWPRP | 0.809 |
| RRIRTRPPRLPRPRPRPGHPPRP | 0.09 |
| RRIRFRPPRLPRPRPRPSSEPRP | -0.134 |
| RRIRYRPPRLPRPRPRPYGSPRP | -0.843 |
| RRIRYRPPRLPRPRPRPSFRPRP | -0.59 |
| RRIRTRPPRLPRPRPRPAWMPRP | 0.307 |
| RRIRKRPPRLPRPRPRPDEWPRP | 0.268 |
| RRIRGRPPRLPRPRPRPGCVPRP | 1.08 |
| RRIRHRPPRLPRPRPRPCVNPRP | -0.166 |
| RRIRDRPPRLPRPRPRPMHYPRP | 0.0552 |
| RRIRARPPRLPRPRPRPWQDPRP | 0.0326 |
| RRIRQRPPRLPRPRPRPYTDPRP | -0.209 |
| RRIRPRPPRLPRPRPRPEYQPRP | 0.288 |
| RRIRIRPPRLPRPRPRPGDRPRP | -0.123 |
| RRIRMRPPRLPRPRPRPFMGPRP | -0.0409 |
| RRIRRRPPRLPRPRPRPVGSPRP | 0.432 |
| RRIRYRPPRLPRPRPRPLPGPRP | -0.139 |
| RRIRNRPPRLPRPRPRPCWWPRP | 0.0782 |
| RRIRPRPPRLPRPRPRPCEVPRP | 0.00799 |
| RRIRIRPPRLPRPRPRPQFTPRP | -0.986 |
| RRIRGRPPRLPRPRPRPRAVPRP | 1 |
| RRIRDRPPRLPRPRPRPQRIPRP | -0.142 |
